Measured values reported in patent US20190271704.

How the values were obtained:
[1] = tested on: T1, NE peptide substrate with acetylated N-terminal CKKK-PEG4 linker and C-terminal pentafluoropropylamine reporter (peptide-PFC)
T1 sequence: CKKKXXXX

[2] = tested on: T2, NE peptide substrate with acetylated N-terminal CKKK-PEG4 linker and C-terminal heptafluorobutylamine reporter (peptide-PFC)
T2 sequence: CKKKXXXX

## MMP13
[1]
  PFC release from the peptide substrate (real-time vapor analysis mass spectrometry): minimal cleavage by other proteases ... (MMP9 and MMP13
[2]
  PFC release from the peptide substrate (real-time vapor analysis mass spectrometry): minimal cleavage by other proteases ... (MMP9 and MMP13

## MMP9
[1]
  PFC release from the peptide substrate (real-time vapor analysis mass spectrometry): minimal cleavage by other proteases ... (MMP9 and MMP13
[2]
  PFC release from the peptide substrate (real-time vapor analysis mass spectrometry): minimal cleavage by other proteases ... (MMP9 and MMP13
